assay: yeast display, Sf9 membrane polyspecificity reagent, FACS + sequencing; frameworks hold sequencing errors
How it was run: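 Using colony PCR, genes from sorted yeast display clones were amplified, then sequenced on MiSeq at 2 × 250 and filtered by CDR length. The clones had been stained with 10% biotinylated, detergent-solubilized Sf9 membrane reagent for 1 hour at 4 °C and sorted by FACS into low and high (top ~1%) gates on anti-HA and streptavidin fluorescence. Polyreactivity labels come from the gate of origin.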

| Sequence | polyreactivity (PSR sort gate) |
| --- | --- |
| QVQLVESGGGLVQAGGSLRLICAASGSIFTLYDMGWYRQAPGKERELVAAITSGGSTDYADSVKGRFTISRDNAKNTVYLQMNSLKPEDTAVYYCNAEAYPYWYRGASREYDYWGQGTQVTVSS | low polyreactivity |
| QVQLVESGGGLVQAGGSLRLICAASGSIFTYYVMGWYRQAPGKDRDLVAGISRAGSTNYADSVKGRFTISRDNAKNTVYLQMNSLKPEDTAVYYCAKSVWFVKHRKPHDYWGQGTQVTVSS | low polyreactivity |
| QVQLVESGGGLVQAGGSLRLICAASGSIFYRYAMGWYRQAPGKERELVAAISSNGVSTYYADSVKGRFTISRDNAKNTVYLQMNSLKPEDTAVYYCARDVYASPRLYTSRYNYWGQGTQVTVSS | low polyreactivity |
| QVQLVESGGGLVQAGGSLRLICAASGSIIHKNAMGWYRQAPGKERELVARITSSSGSTYYADSVKGRFTISRDNAKNTVYLQMNSLKPEDTAVYYFNAVYYHDVDFDYWGQGTQVTVSS | high polyreactivity |
| QVQLVESGGGLVQAGGSLRLICAASGSILYKYAMGWYRQAPGKERELVAAISSRGGNTYYADSVKGRFTISRDNAKNTVYLHMNSLKPEDTAVYYCAADMWAGKYGEYDYWGQGTQVTVSS | high polyreactivity |
| QVQLVESGGGLVQAGGSLRLICAASGSIQDWNAMGWYRQAPGKERELVAAITNGVSTHYADSVKGRFTISRDNAKNTVYLQMNSLKPEDTAVYYCAKAFWWRPEWWLRSARGSWGLGTQVTVSS | low polyreactivity |
| QVQLVESGGGLVQAGGSLRLICAASGSNFNPYAMGWYRQAPGKERELVAAINSGDSTNYADSVKGRFSISRDNAKNTLYLQMNSLKPEDTAVFYCANRYRRRYNYWGQGTQETVSS | high polyreactivity |
| QVQLVESGGGLVQAGGSLRLICAASGSTFATYSMGWYRQAPGKERELVAAITLRGGRTYYADSVKGRFTISRDNAKNTVYLQMNSLKPEDTAVYYCAAEYYYLSFGLTWWRGFDYWGQGTHVTVSS | high polyreactivity |
| QVQLVESGGGLVQAGGSLRLICAASGSTFAYNDMGWYRQAPGKERELVADIRSGGNTNYADSVKGRFTISRDNAKNTVYLQMNSLKPEDTAVYYCATDCYRIDVYHPDYRYDYWGQGTQVTVSS | low polyreactivity |
| QVQLVESGGGLVQAGGSLRLICAASGSTFGPYSMGWYRQAPGKERELVAAIDQISSSTHYADSVKGRFTISRDNAKNTVYLQMNSLKPEDTAVYYCNADEFRYGYFPHYDYWGQGTQVTVSS | low polyreactivity |
| QVQLVESGGGLVQAGGSLRLICAASGSTFGRNAMGWSRQAPGKERELVAAISSGGRTYYADSVKGRFTSSRDNAKHTVYVQLNSLKPEDSAVYYCARDDYGTLVKLYVRGFNYWGQGTQVTVSS | low polyreactivity |
| QVQLVESGGGLVQAGGSLRLICAASGSTFKGYAMGWYIQSPGKERELVAAISWPGGRTSYADSVKGRFTISRDNAKNTVYLQMNSLKPEDTAVYYCNKAWWVQKGYFFYYWEQGTQVTVSS | high polyreactivity |
| QVQLVESGGGLVQAGGSLRLICAASGSTFLVYSMGWYRQEPGKERELVAAISYSGGSTYYADSVKGRFTISRDNSKNTVYLQLNSLKPEDTAVYYCNVEPVDRWYYKYDYWGQGTEVTVSS | low polyreactivity |
| QVQLVESGGGLVQAGGSLRLICAASGSTFPSYAMGWYRQAPGKERELVAAITWSGDSTYYADSVKGRFTILRDNAKNTVYLQMNSLKPEDTAVYYCAKDGGYPVGVLGGDDMEYWGQGTQVTVSS | low polyreactivity |
| QVQLVESGGGLVQAGGSLRLICAASGSTFQDYGMGWYRQAPGKERELVAAITTGDITNYADSVKGRFTISRDNAKKTVYLQMNSLKAEDTAVYYCNAEPKFYPDAGDDYWGQGTQVTVSS | low polyreactivity |
| QVQLVESGGGLVQAGGSLRLICAASGSTFRWNALRWYRQAPGKERELVAAITWSGGSTYYADSVKVRFTISRDNAKNTVYVQMNSLKPEDTAVYYCNACGLFQYDSWGQGTKVTVSS | low polyreactivity |

| Sequence | polyreactivity (PSR sort gate) |
| --- | --- |
| QVQLVESGGGLVQAGGSLRLICAASGSTFRYYAMGWYRQAPGKEREFVAAISLRAGSTYYADSVKGRFTISRDNAKNTVYLQMNSLKPEDTAVYYCAARRASYGTRRYDYWGQGTQVTVSS | high polyreactivity |
| QVQLVESGGGLVQAGGSLRLICAASGSTFSENTMGSYRPAPGKERELVAAISFSGASTYYADSVKGRFTISRDYAKKTVYLQLNSLKPEDTAVYYCRRFTSSPKLALGEYDYWGQGTQVTVSS | low polyreactivity |
| QVQLVESGGGLVQAGGSLRLICAASGSTFTGYAMGWYRQAPGKERELVAAINWRGGTTYYADSVKGRFTISRDNAKNTVYLQMNSLKPEDTAVYYCNKYRISGLSKFYYWGQGTQVTVSS | high polyreactivity |
| QVQLVESGGGLVQAGGSLRLICAASGSTFTTYAMGWYRQAPGKEREFVAGISWSGGSTRYADSVKGRFTISRDNAKNTVYLQMNSLKPEDTAVYYCAAGRKRDSKYYYWGQGTQVTVSS | high polyreactivity |
| QVQLVESGGGLVQAGGSLRLICAASGSTFYTYAMGWYRQAPGKERELVAAITYSGGTTYYADSVKGRFTISRDSAKNTVYLQMNSLKPEDTAFYYCNTRSYYYSDDYWGQGTQVTVSS | low polyreactivity |
| QVQLVESGGGLVQAGGSLRLICAASGTFVTYMGWYRQAPGKERELVAAIRNGGSTNYADSVKGRFTISRDNAKNTVYLQMNSLKPEDTAVYYCAARVTYSRGYRGGSRTKYDYWGQGTQVTVSS | low polyreactivity |
| QVQLVESGGGLVQAGGSLRLICAASGTIFSDNEMGRYRQAPGKEREFVADISSDGSTYYADSVKGRFTISRDNAKNTVYLQMNSLKPEDTAVYYCDADPIFSLYYHYGHFDYWGQGTQVTVSS | low polyreactivity |
| QVQLVESGGGLVQAGGSLRLICAASGVNAMGWYRQAPGKEREFVAAITSIGGSTYYADSVKGRFTISRDNAKNSVYLQMNSLKPEDTAVYYCNTDRGPVKVSPLYESWGQGTQVTVSS | low polyreactivity |
| QVQLVESGGGLVQAGGSLRLICAASGYIFDYYAMGWYRQAPGKERELVAAISWSGGSTYYADSVKGRFTISRDNEKNTVSLQMNSLKPEDTAVYYCAAEGTYYGSDYWGQGTQVTVSS | high polyreactivity |
| QVQLVESGGGLVQAGGSLRLICAASGYIFKYYAMGWYRQAPGKERELVATINYSGGGTYYADSVKGRFTISRDNAKNTVYLQMNSLKPEDTAVYYCAAREKYISYSYYYWGQGTQVTVSS | high polyreactivity |
| QVQLVESGGGLVQAGGSLRLICAASGYIFYDYAMGWYRQAPGKERQLVATITSGGRTYADSVKGRFTISRDNAKNTVYLQMNSLKPEDTAVYYCAVDQYGAMDYWGQGTQVTVSS | low polyreactivity |
| QVQLVESGGGLVQAGGSLRLICAASGYNCKYYAMGWYRAAPGKERELVASITSGGRTNYADSVKGRFTISRDNAKNTVYLQMNSLKPEDTAVYYCASRKPWKFVRTYTYDYWGQGTQLTVSS | high polyreactivity |
| QVQLVESGGGLVQAGGSLRLICAASVSIFTKYAMGWYRQAPGKERELVADITRSGGSTYYADSVKGRFTISRDNAKNTVYLQMNSLKPEDTAVYYCAVDPVRYPYSYDYWGQGTQVTVSS | high polyreactivity |
| QVQLVESGGGLVQAGGSLRLICAAYGRIFQGYAMGWYRQAPGKERELVAAITLSGGSTYYADSVKGRFTISRDNAKNTVYLQMNSLKPEDTAVSYCNAYYPDEPSLYDYWGQGTQVTVSS | low polyreactivity |
| QVQLVESGGGLVQAGGSLRLICAAYGSTFKQYAMGWYRPAPGKERELVAAITRGGRTYYADSVKGRFTISRDNAKNTVYLQMNSLKPEDTAVYYCNAQSWRRYGHFYYWGQGTQVTVSS | high polyreactivity |
